Bridges are numbered along the chain shown (N, C = ends). Where no end group is shown, it is not given here.
Tests used:
mouse albumin = target: T1, mouse albumin (Mus musculus, UniProt P07724); experiment: Direct Binding ELISA, AB.Fab variants on immobilized mouse albumin; conditions: average and SD of at least 3 determinations
T1 construct: purchased Sigma
Method: (§1) Mouse, rat, or rabbit albumin (Sigma, St. Louis, Mo.) were immobilized onto NUNC Maxisorp™ 96-well plates at 2 ug/ml overnight at 4° C. […] AB.Fab variants were serially diluted in binding buffer and added at 100 μl per well to the immobilized albumin for 30 minutes at 25° C. Unbound AB.Fab variant was removed by washing wells with 0.05% PBS/Tween® 20 and bound AB.Fab variant was detected with goat anti-human Fab′2-HRP for 1 hour at 25° C. Bound HRP was measured with a solution of tetramethylbenzidine (TMB)/H202. After 15 minutes, the reaction was quenched by the addition of 1M phosphoric acid.
(§2) Initially we explored binding of the AB.Fab variants to immobilized albumin using a Direct Binding ELISA.

rat albumin [1] = target: T2, rat albumin (Rattus norvegicus, UniProt P02770); experiment: Direct Binding ELISA, AB.Fab variants on immobilized rat albumin; parameters: purchased Sigma; conditions: average and SD of at least 3 determinations
T2 sequence (P02770 25-608): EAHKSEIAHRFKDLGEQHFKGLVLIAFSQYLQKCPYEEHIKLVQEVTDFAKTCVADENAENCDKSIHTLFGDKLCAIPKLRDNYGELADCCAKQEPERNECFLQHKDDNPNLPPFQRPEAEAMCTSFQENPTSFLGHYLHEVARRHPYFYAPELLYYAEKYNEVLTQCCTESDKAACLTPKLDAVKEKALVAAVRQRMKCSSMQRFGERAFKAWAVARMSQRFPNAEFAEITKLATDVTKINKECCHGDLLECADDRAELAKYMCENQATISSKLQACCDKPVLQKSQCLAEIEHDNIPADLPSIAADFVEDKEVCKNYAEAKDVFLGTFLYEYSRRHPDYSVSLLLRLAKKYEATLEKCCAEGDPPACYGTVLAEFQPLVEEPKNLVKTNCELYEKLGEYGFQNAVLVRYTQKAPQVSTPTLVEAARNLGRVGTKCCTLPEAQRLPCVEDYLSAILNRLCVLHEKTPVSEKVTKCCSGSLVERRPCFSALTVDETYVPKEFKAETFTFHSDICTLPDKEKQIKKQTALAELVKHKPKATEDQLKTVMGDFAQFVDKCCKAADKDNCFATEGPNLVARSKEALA
Method: as §1, §2

rabbit albumin [2] = target: T3, rabbit albumin (Oryctolagus cuniculus, UniProt P49065); experiment: Direct Binding ELISA, AB.Fab variants on immobilized rabbit albumin; parameters: purchased Sigma; conditions: average and SD of at least 3 determinations
T3 sequence (P49065 25-608): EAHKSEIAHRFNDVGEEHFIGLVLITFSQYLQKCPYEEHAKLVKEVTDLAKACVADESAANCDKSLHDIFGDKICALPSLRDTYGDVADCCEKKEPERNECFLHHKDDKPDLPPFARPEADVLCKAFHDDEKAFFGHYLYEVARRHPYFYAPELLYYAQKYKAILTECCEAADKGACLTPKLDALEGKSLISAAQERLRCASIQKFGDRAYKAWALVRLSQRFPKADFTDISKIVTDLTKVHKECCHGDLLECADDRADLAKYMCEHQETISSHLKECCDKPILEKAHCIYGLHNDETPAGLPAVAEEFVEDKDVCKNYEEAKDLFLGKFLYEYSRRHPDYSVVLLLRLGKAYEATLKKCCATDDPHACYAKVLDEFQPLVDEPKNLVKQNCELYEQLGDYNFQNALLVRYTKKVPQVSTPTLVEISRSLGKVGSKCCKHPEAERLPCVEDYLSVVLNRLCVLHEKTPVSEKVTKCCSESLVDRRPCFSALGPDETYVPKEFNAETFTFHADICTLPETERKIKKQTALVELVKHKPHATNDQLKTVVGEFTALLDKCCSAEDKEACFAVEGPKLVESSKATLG
Method: as §1, §2

rat albumin [3] = target: T2, rat albumin; experiment: Solution Binding ELISA, AB.Fab variants with soluble rat albumin; parameters: purchased Sigma; conditions: Rat Albumin, soluble; Scatchard; average and SD of at least 3 determinations; read-out: Solution Binding ELISA (Kd)
rat albumin [4] = target: T2, rat albumin; conditions: FIG. 3
rabbit albumin [5] = target: T3, rabbit albumin; conditions: FIG. 3
[6] = Pharmacokinetics of D3H44 variants in rabbits (TF binding ELISA); assay type: in vivo, rabbit; parameters: V1 Avg (Historical): unit not given here
Method: D3H44 variants were administered to rabbits as a 0.5 mg/kg bolus injection into the marginal ear vein. Each test group consisted of 3 rabbits (5 rabbits were used in the F(ab′)2 group). Serum samples were taken at the indicated time points, serially diluted, and the concentration of D3H44 was determined using a TF binding ELISA.
Pharmacokinetic analysis was performed using the test article plasma concentrations. Group mean plasma data for each test article conforms to a multi-exponential profile when plotted against the time post-dosing. The data were fit by a standard two-compartment model with bolus input and first-order rate constants for distribution and elimination phases. The general equation for the best fit of the data for i.v. administration was: c(t)=Ae^−αt+[…], where c(t) is the plasma concentration at time t, A and B are intercepts on the Y-axis, and α and β are the apparent first-order rate constants for the distribution and elimination phases, respectively. The α-phase is the initial phase of the clearance and reflects distribution of the protein into all extracellular fluid of the animal, whereas the second or β-phase portion of the decay curve represents true plasma clearance. Methods for fitting such equations are well known in the art. For example, A=D/V(α−k21)/(α−β), B=D/V (β−k21)/(α−β), and α and β (for α>β) are roots of the quadratic equation: r^2+(k12+k21+k10)r+k21k10=0 using estimated parameters of V=volume of distribution, k10=elimination rate, k12=transfer rate from compartment 1 to compartment 2 and k21=transfer rate from compartment 2 to compartment 1, and D=the administered dose.
Data analysis: Graphs of concentration versus time profiles were made using KaleidaGraph (KaleidaGraph™ V. 3.09 Copyright 1986-1997. Synergy Software. Reading, Pa.). Values reported as less than reportable (LTR) were not included in the PK analysis and are not represented graphically. Pharmacokinetic parameters were determined by compartmental analysis using WinNonlin software (WinNonlin® Professional V. 3.1 WinNonlin™ Copyright 1998-1999. Pharsight Corporation. Mountain View, Calif.). Pharmacokinetic parameters were computed as described in Ritschel W A and Kearns G L, 1999, IN: Handbook Of Basic Pharmacokinetics Including Clinical Applications, 5th edition, American Pharmaceutical Assoc., Washington, D.C.

TF and albumin = experiment: biotin-TF binding assay (fusion on immobilized albumin detected with biotinylated TF); conditions: FIG. 8
Text: Purified D3H44 fusions retained their ability to bind TF as measured using a FX activation assay (FIG. 5), and a prothrombin time assay that measures prolongation of tissue factor dependent clotting (FIG. 6). The assay methods are described, for example, in Dennis et al., 2000, Nature 404: 465. […] Further, each of the albumin-binding fusions bound TF and albumin simultaneously. […] In this assay, binding of the D3H44 fusions to immobilized albumin was detected with biotinylated TF.

human albumin = target: T4, human albumin (Homo sapiens, UniProt P02768); experiment: Phage ELISA, phage clones on immobilized human albumin; assay type: binding
T4 construct: purchased Sigma
Method: (§3) Phage clones (approximately 10^11 phage) were added to Maxisorp plates coated with rat, rabbit, or human albumin or with mouse, bovine, or rhesus albumin (Sigma), as described above. The microtiter plate was washed with wash buffer and bound phage were detected following incubation with HRP/Anti-M13 Conjugate (Amerisham Pharmacia Biotech, Piscataway, N.J.).

rabbit albumin [7] = target: T3, rabbit albumin; experiment: Phage ELISA, phage clones on immobilized rabbit albumin; assay type: binding; parameters: purchased Sigma; conditions: phage ELISA
Method: as §3

[8] = in vivo; cited from earlier work
[9] = in vivo; cited from earlier work; remark: listed apart in the source
[10] = in vivo; cited from earlier work; remark: listed apart in the source
[11] = in vivo; cited from earlier work; remark: listed apart in the source
albumin = experiment: SA08b binding assay / competition ELISA, albumin species not stated; conditions: albumin species not given
[12] = Summarized Pk Data (Historical)

T1 sequence (P07724 25-608): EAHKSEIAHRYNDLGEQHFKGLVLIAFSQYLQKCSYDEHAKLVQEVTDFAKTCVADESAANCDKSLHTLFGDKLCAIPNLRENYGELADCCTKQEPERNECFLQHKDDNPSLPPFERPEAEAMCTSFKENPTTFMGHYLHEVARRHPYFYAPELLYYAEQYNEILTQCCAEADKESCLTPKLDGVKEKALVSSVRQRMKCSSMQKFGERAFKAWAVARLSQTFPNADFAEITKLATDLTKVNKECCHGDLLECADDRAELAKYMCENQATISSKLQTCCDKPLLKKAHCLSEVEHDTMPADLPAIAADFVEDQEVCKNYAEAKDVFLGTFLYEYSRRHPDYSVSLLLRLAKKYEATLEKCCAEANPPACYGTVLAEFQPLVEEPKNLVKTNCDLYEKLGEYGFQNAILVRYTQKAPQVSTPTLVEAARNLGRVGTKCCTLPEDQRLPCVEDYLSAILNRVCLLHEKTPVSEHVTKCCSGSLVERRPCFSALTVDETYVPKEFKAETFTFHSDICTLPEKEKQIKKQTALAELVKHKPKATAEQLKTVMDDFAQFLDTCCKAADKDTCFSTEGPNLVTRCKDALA

## 4D5-H11: AB.Fab variant made by deletion in 4D5-H4 (Table 12) (DICLPRWGCL; disulfide 3-9 (inferred); also: part of Fab heavy chain)
Mouse albumin
  EC50: > 2 µM
Rat albumin [1]
  EC50: > 1 µM
Rabbit albumin [2]
  EC50: > 2 µM
Rat albumin [3]
  Kd: 2.43 ± 0.32 µM

## CC[C@H](C)[C@H](NC(=O)[C@H](CC(C)C)NC(=O)CNC(=O)[C@H](CCC(N)=O)NC(C)=O)C(=O)NCC(=O)N[C@@H](CC(=O)O)C(=O)N[C@H](C(=O)N[C@H]1CSSC[C@@H](C(=O)N[C@@H](CC(C)C)C(=O)N[C@@H](Cc2c[nH]c3ccccc23)C(=O)NCC(=O)N[C@@H](CC(=O)O)C(=O)N[C@@H](CO)C(=O)N[C@H](C(=O)N[C@@H](CCCCN)C(N)=O)C(C)C)NC(=O)CNC(=O)[C@H](Cc2c[nH]c3ccccc23)NC(=O)[C@H](CCCNC(=N)N)NC(=O)[C@@H]2CCCN2C(=O)[C@H](CC(C)C)NC1=O)[C@@H](C)CC [SA08]
Rat albumin [4]
  inhibition of RD phage binding to rat albumin: clearly blocked
Rabbit albumin [5]
  inhibition of BA phage binding to rabbit albumin: clearly blocked

## D3H44-Fab: Fab fragment of D3H44, a humanized antibody that binds human tissue factor (TF)
[6]; [12]
  AUC Avg (Historical): 9800 ng·h/mL
  AUC/Dose Avg (Historical): 19.7 (hr * ug/mL)(/(mg/kg)
  CL Avg (Historical): 0.863 mL/min/kg
  K10-HL Avg (Historical): 0.760 hr
  V1 Avg (Historical): 55.9
  Vss Avg (Historical): 0.127 L/kg
[6]; rabbit, 0.5 mg/kg bolus i.v.
  AUC Avg: 5860 ng·h/mL
  AUC/Dose Avg: 14.8 (hr * ug/mL)/(mg/kg)
  Cmax Avg: 5000 ng/mL
  MRT Avg: 3.07 h
  V1* Avg (initial distribution volume): 0.0906 L/kg
TF and albumin
  simultaneous binding of TF and albumin: did not bind albumin

## QRQMVDFCLPQWGCLWGDGF [RB, phage clone selected on rat SA, ID 35]
Human albumin
  binding to human albumin: capable of binding
Rabbit albumin [7]
  binding to rabbit albumin: capable of binding

## albumin
[8]
  half-life in man: 456 h
[9]
  half-life in rat: 45.6 h
[10]
  half-life in mouse: 24 h
[11]
  half-life in rabbit: 133 h

## linear peptide, identical to SA06, but having both Cys residues altered to Ala: linear peptide, identical to SA06, but having both Cys residues altered to Ala (LEYEDIALPKWGALWGGE)
albumin
  IC50: > 50 µM

Reference: patent US20140294863A1, “SERUM ALBUMIN BINDING PEPTIDES FOR TUMOR TARGETING” (GENENTECH, INC., priority 2002, published 2014)
